Reference: publication PMC10875832

Assays:
[1] = target: FAdV-4 fiber1 knob (fowl adenovirus 4 (FAdV-4)); experiment: crystal structure; crystal in 20% (w/v) PEG 4000 and 0.15 M potassium sulfate; one chain in the asymmetric unit, trimer by crystal symmetry
[2] = target: EDSV fibre knob (egg drop syndrome virus (EDSV)); experiment: SPR; Biacore X100, CM5 sensor chip; fibre knobs immobilised, soluble CAR domains in solution (said for D12); 1:1 binding model
[3] = target: FAdV-4 fiber1 knob (fowl adenovirus 4 (FAdV-4)); experiment: as above
[4] = target: CELO fiber1 knob (chicken embryo lethal orphan (CELO) virus); experiment: as above

Row | Substance | stoichiometry N [1] | Kd [2] | Kd [3] | Kd [4] | fold weaker affinity than the D1 domain for the same knob [4]
1 | FAdV-4 fiber1 knob (domain or fragment) | 3 |  |  |  | 
2 | soluble CAR D1 domain (domain or fragment) |  | 2.76 µM | 7.42 µM |  | 
3 | soluble CAR D2 domain (domain or fragment) |  | 4.77 µM | 6.29 µM | 11200 µM | 1000 fold
4 | soluble CAR D12 (domain or fragment) |  | 2.67 µM | 0.868 µM |  | 
